Among the data in paper PMC12292835, “Amylin Receptor 1 Mutagenesis Revealed a Potential Role of Calcitonin Serine 29 in Receptor Interaction” (Biomedicines, 2025) are response and Ki values, retold here.

The target in experiment [1] is FITC-labeled AC413(6–25) with Y25P mutation. In words: fluorescence anisotropy, FITC-peptide probe binding. As to conditions: anisotropy at the highest receptor concentration shown, log [RAMP1 ECD-CTR ECD fusion] M = -6; parent: est. 0.19; read off a plot. Background: In fluorescence polarisation assays a small probe gives low polarisation when free and higher when bound to something large.

Experiment [2] has as its target FITC-labeled salmon calcitonin (sCT) fragment(22–32). Described as above. The following applies: anisotropy at the highest receptor concentration shown for this mutant, read off a plot.
Experiment [3] addresses amylin receptor 1 extracellular domain, wild type (hRAMP1.24–111-(GSA)3-hCTR.34–141-H6) (human) (UniProt O60894). In words: competition binding assay; non-labeled sCT(22–32) as competitor on amylin receptor 1 ECDs (Figure S3); probe and conditions not shown.
Experiment [4] has as its target amylin receptor 1 ECD ECD (Homo sapiens) (UniProt P30988). As to conditions: cited from earlier work.
The mark [5] stands for this setting: log [RAMP1 ECD-CTR ECD fusion] M = -5.5, parent: est. 0.19.

Sequence of salmon calcitonin fragment sCT(22-32) 22-32 (P01263 whole entry, looked up, the tested form may be a part): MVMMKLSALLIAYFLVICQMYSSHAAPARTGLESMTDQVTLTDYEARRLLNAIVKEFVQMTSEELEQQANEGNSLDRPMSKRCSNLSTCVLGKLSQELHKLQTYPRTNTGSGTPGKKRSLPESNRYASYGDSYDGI

Regarding “amylin receptor 1 extracellular domain, wild type (hRAMP1.24–111-(GSA)3-hCTR.34–141-H6) (from UniProt O60894) D101A”, the response in experiment [1] was determined as 0.041; in experiment [2] (log [RAMP1 ECD-CTR ECD fusion] M = -6, parent: est. 0.18), 0.035.

Consider “amylin receptor 1 extracellular domain, wild type (hRAMP1.24–111-(GSA)3-hCTR.34–141-H6) (from UniProt O60894) D101E”, for which the response worked out at 0.046 in experiment [1] and 0.035 in experiment [2] (setting [5]).

In the case of “amylin receptor 1 extracellular domain, wild type (hRAMP1.24–111-(GSA)3-hCTR.34–141-H6) (from UniProt O60894) N135A”, the response in experiment [1] came to 0.1; in experiment [2] (setting [5]), 0.081.

In the case of “amylin receptor 1 extracellular domain, wild type (hRAMP1.24–111-(GSA)3-hCTR.34–141-H6) (from UniProt O60894) N135D”, the figures for the response in experiment [1] and in experiment [2] (setting [5]) were 0.056 and 0.052, respectively.

For “non-labeled salmon calcitonin (sCT) (22–32) fragment (peptide)”, the Ki in experiment [3] turned out to be 0.891 µM.

Regarding “salmon calcitonin fragment sCT(22-32) 22-32 (from UniProt P01263)”, the Ki in experiment [4] is 2.5 µM.

What is called Ki is the dissociation constant of the complex between target and ligand, obtained from inhibition or displacement.
